According to patent US12281147:

Assays:
human IL-21R (human) [1] = target: human IL-21R (human) (UniProt Q9HBE5); test: AlphaSeq yeast mating assay, pH 5 media
human IL-21R (human) [2] = target: human IL-21R (human) (UniProt Q9HBE5); test: AlphaSeq yeast mating assay, pH 7 media
human IL-21R (human) [3] = target: human IL-21R (human) (UniProt Q9HBE5); test: AlphaSeq yeast mating assay, pH 6 media

Row | Substance | Kd (human IL-21R (human) [1]) | Kd (human IL-21R (human) [2]) | Kd (human IL-21R (human) [3])
1 | IL-21_L61H (from UniProt Q9HBE4 32-152) (ligand) | 0.12 µM | 0.024 µM | 
2 | IL-21_R105D (from UniProt Q9HBE4 32-152) (ligand) | 170 µM |  | 
3 | IL-21_F76P (from UniProt Q9HBE4 32-152) (ligand) | 250 µM |  | 41 µM
4 | IL-21_V57H (from UniProt Q9HBE4 32-152) (ligand) | 1.6 µM |  | 0.024 µM
5 | IL-21_L42D (from UniProt Q9HBE4 32-152) (ligand) | 1600 µM |  | 14 µM
6 | IL-21_Q80A (from UniProt Q9HBE4 32-152) (ligand) |  |  | 12 µM
7 | IL-21_L49H (from UniProt Q9HBE4 32-152) (ligand) | 160 µM |  | 
8 | IL-21_V57M (from UniProt Q9HBE4 32-152) (ligand) | 0.057 µM | 0.025 µM | 
9 | IL-21_I45H (from UniProt Q9HBE4 32-152) (ligand) |  |  | 6.2 µM
10 | IL-21_I96T (from UniProt Q9HBE4 32-152) (ligand) |  |  | 66 µM
11 | IL-21_M39Q (from UniProt Q9HBE4 32-152) (ligand) |  |  | 83 µM
12 | IL-21_V57Y (from UniProt Q9HBE4 32-152) (ligand) | 0.046 µM |  | 0.016 µM
13 | IL-21_Q150S (from UniProt Q9HBE4 32-152) (ligand) | 0.043 µM | 0.12 µM | 
14 | IL-21_F79K (from UniProt Q9HBE4 32-152) (ligand) |  |  | 5.5 µM
15 | IL-21_F76D (from UniProt Q9HBE4 32-152) (ligand) |  |  | 55 µM
16 | IL-21_L42E (from UniProt Q9HBE4 32-152) (ligand) |  | 26 µM | 
17 | IL-21_L42G (from UniProt Q9HBE4 32-152) (ligand) |  |  | 32 µM
18 | IL-21_I43P (from UniProt Q9HBE4 32-152) (ligand) | 330 µM |  | 
19 | IL-21_F76Q (from UniProt Q9HBE4 32-152) (ligand) |  | 63 µM | 50 µM

Row | Substance | Kd (human IL-21R (human) [1]) | Kd (human IL-21R (human) [2]) | Kd (human IL-21R (human) [3])
20 | IL-21_F79P (from UniProt Q9HBE4 32-152) (ligand) |  | 3.3 µM | 7.8 µM
21 | IL-21_P108Q (from UniProt Q9HBE4 32-152) (ligand) |  | 0.11 µM | 
22 | IL-21_L42S (from UniProt Q9HBE4 32-152) (ligand) |  | 11 µM | 
23 | IL-21_I43S (from UniProt Q9HBE4 32-152) (ligand) | 43 µM |  | 1.1 µM
24 | IL-21_P108T (from UniProt Q9HBE4 32-152) (ligand) | 57 µM | 1.1 µM | 
25 | IL-21_L49N (from UniProt Q9HBE4 32-152) (ligand) | 170 µM |  | 
26 | IL-21_I100E (from UniProt Q9HBE4 32-152) (ligand) |  |  | 78 µM
27 | IL-21_I45D (from UniProt Q9HBE4 32-152) (ligand) | 20 µM |  | 0.19 µM
28 | IL-21_V98R (from UniProt Q9HBE4 32-152) (ligand) | 0.046 µM |  | 
29 | IL-21_I37R (from UniProt Q9HBE4 32-152) (ligand) |  | 0.2 µM | 0.17 µM
30 | IL-21_I95P (from UniProt Q9HBE4 32-152) (ligand) | 64 µM |  | 3.6 µM
31 | IL-21_L49S (from UniProt Q9HBE4 32-152) (ligand) | 240 µM |  | 
32 | IL-21_V57T (from UniProt Q9HBE4 32-152) (ligand) | 0.17 µM | 0.078 µM | 
33 | IL-21_E72L (from UniProt Q9HBE4 32-152) (ligand) | 0.047 µM | 0.16 µM | 
34 | IL-21_V53Q (from UniProt Q9HBE4 32-152) (ligand) |  | 0.2 µM | 0.16 µM
35 | IL-21_I96G (from UniProt Q9HBE4 32-152) (ligand) |  |  | 52 µM
36 | IL-21_L42R (from UniProt Q9HBE4 32-152) (ligand) | 150 µM |  | 
37 | IL-21_R34N (from UniProt Q9HBE4 32-152) (ligand) | 0.96 µM |  | 0.052 µM

Second part, the substance after the results:

Row | Kd (human IL-21R (human) [1]) | Kd (human IL-21R (human) [2]) | Kd (human IL-21R (human) [3]) | Substance
38 | 150 µM | 7.2 µM |  | IL-21_Q41K (from UniProt Q9HBE4 32-152) (ligand)
39 | 0.033 µM | 0.094 µM |  | IL-21_N70A (from UniProt Q9HBE4 32-152) (ligand)
40 | 0.36 µM |  |  | IL-21_R34A (from UniProt Q9HBE4 32-152) (ligand)
41 | 41 µM | 0.34 µM | 1.5 µM | IL-21_E59R (from UniProt Q9HBE4 32-152) (ligand)
42 |  | 1 µM |  | IL-21_I45N (from UniProt Q9HBE4 32-152) (ligand)
43 |  |  | 12 µM | IL-21_I45Y (from UniProt Q9HBE4 32-152) (ligand)
44 | 40 µM |  |  | IL-21_D33P (from UniProt Q9HBE4 32-152) (ligand)
45 | 65 µM |  | 3.4 µM | IL-21_W73N (from UniProt Q9HBE4 32-152) (ligand)
46 |  | 0.12 µM | 0.024 µM | IL-21_P132A (from UniProt Q9HBE4 32-152) (ligand)
47 | 0.11 µM | 0.044 µM |  | IL-21_N51G (from UniProt Q9HBE4 32-152) (ligand)
48 |  |  | 35 µM | IL-21_Q41P (from UniProt Q9HBE4 32-152) (ligand)
49 | 26 µM | 0.14 µM |  | IL-21_D33R (from UniProt Q9HBE4 32-152) (ligand)
50 | 110 µM |  | 6.5 µM | IL-21_W73V (from UniProt Q9HBE4 32-152) (ligand)
51 |  |  | 0.079 µM | IL-21_K104G (from UniProt Q9HBE4 32-152) (ligand)
52 |  | 3 µM |  | IL-21_V57P (from UniProt Q9HBE4 32-152) (ligand)
53 |  |  | 37 µM | IL-21_V46N (from UniProt Q9HBE4 32-152) (ligand)
54 |  | 44 µM | 46 µM | IL-21_L56S (from UniProt Q9HBE4 32-152) (ligand)
55 | 11 µM |  |  | IL-21_P108G (from UniProt Q9HBE4 32-152) (ligand)
56 |  | 0.2 µM | 0.05 µM | IL-21_D44G (from UniProt Q9HBE4 32-152) (ligand)
57 | 330 µM |  | 55 µM | IL-21_L49P (from UniProt Q9HBE4 32-152) (ligand)
58 | 72 µM | 9.7 µM |  | IL-21_L56N (from UniProt Q9HBE4 32-152) (ligand)
59 | 33 µM | 0.33 µM |  | IL-21_I37N (from UniProt Q9HBE4 32-152) (ligand)
60 | 39 µM | 0.34 µM |  | IL-21_W73S (from UniProt Q9HBE4 32-152) (ligand)
61 | 7.3 µM |  |  | IL-21_K106S (from UniProt Q9HBE4 32-152) (ligand)
62 |  | 2 µM | 1.2 µM | IL-21_R38M (from UniProt Q9HBE4 32-152) (ligand)
63 | 15 µM |  |  | IL-21_R38A (from UniProt Q9HBE4 32-152) (ligand)
64 | 11 µM |  | 0.2 µM | IL-21_Q48K (from UniProt Q9HBE4 32-152) (ligand)
65 | 0.055 µM | 0.026 µM |  | IL-21_D66M (from UniProt Q9HBE4 32-152) (ligand)
66 | 100 µM |  |  | IL-21_I45P (from UniProt Q9HBE4 32-152) (ligand)
67 |  | 0.95 µM | 26 µM | IL-21_L42N (from UniProt Q9HBE4 32-152) (ligand)
